From US20090298769A1
Values belong to the substance of their own block, whether it stands above or below them.

Experiments:
[1] = biological target: DiYF β3 integrin (αvβ3 with β3 Tyr747Phe and Tyr759Phe) on lung endothelial cells of knock-in mice (mouse) (UniProt P43406); assay: flow cytometry, WOW-1 Fab on DiYF mouse lung EC
[2] = biological target: αvβ3 integrin on human endothelial cells (HUVEC; vessels of human prostate tissue) (human) (UniProt P06756); assay: immunohistochemistry of human prostate tissue
[3] = biological target: αvβ3 integrin, wild type, on mouse lung endothelial cells (mouse) (UniProt P43406); assay: flow cytometry, WOW-1 Fab on WT mouse lung EC
[4] = biological target: αvβ3 integrin on human endothelial cells (HUVEC; vessels of human prostate tissue) (human) (UniProt P06756); assay: flow cytometry, WOW-1 Fab on HUVEC
[5] = biological target: αvβ3 integrin on human endothelial cells (HUVEC; vessels of human prostate tissue) (human) (UniProt P06756); assay: flow cytometry (FACS), WOW-1 Fab on HUVEC
[6] = biological target: αvβ3 integrin on human endothelial cells (HUVEC; vessels of human prostate tissue) (human) (UniProt P06756); assay: flow cytometry, WOW-1 Fab on HUVEC transfected with dominant negative c-Src
[7] = biological target: VEGFR-2 of mouse lung endothelial cells (mouse) (UniProt P35918); assay: cell-based or functional assay
[8] = biological target: αvβ3 integrin, wild type, on mouse lung endothelial cells (mouse) (UniProt P43406); assay: flow cytometry, FITC-fibrinogen on WT mouse lung EC
[9] = biological target: DiYF β3 integrin (αvβ3 with β3 Tyr747Phe and Tyr759Phe) on lung endothelial cells of knock-in mice (mouse) (UniProt P43406); assay: flow cytometry, FITC-fibrinogen on DiYF mouse lung EC
[10] = biological target: DiYF β3 integrin (αvβ3 with β3 Tyr747Phe and Tyr759Phe) on lung endothelial cells of knock-in mice (mouse) (UniProt P43406); assay: cell-based or functional assay

Chain of αvβ3 integrin, wild type, on mouse lung endothelial cells (mouse) (P43406 31-1044, chain 1 of 2): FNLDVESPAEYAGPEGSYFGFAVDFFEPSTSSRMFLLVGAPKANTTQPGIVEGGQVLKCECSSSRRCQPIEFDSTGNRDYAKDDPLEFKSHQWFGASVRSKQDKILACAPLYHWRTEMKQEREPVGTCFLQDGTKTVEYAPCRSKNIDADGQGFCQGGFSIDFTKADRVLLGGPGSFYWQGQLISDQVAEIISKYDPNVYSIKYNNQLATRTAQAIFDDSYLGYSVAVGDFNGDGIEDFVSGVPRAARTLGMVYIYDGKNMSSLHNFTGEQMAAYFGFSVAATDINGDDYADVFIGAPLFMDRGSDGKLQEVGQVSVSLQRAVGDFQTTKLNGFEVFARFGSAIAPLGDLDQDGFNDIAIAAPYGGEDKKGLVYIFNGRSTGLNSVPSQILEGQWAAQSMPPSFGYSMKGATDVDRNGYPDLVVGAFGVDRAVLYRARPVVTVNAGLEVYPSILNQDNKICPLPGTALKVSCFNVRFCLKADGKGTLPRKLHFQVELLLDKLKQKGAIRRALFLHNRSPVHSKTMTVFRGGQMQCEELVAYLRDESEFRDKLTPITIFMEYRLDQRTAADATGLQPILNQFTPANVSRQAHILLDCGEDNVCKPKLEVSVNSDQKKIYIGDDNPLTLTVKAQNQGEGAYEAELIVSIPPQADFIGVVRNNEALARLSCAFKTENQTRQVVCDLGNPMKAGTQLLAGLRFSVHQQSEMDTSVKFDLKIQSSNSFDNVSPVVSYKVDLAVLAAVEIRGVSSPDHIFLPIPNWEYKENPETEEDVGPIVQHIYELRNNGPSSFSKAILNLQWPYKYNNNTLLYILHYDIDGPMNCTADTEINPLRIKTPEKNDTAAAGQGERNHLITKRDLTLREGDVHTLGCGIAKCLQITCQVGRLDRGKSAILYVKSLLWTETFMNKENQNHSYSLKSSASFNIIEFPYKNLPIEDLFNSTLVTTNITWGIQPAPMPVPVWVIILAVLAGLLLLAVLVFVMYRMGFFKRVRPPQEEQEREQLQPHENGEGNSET
Chain of αvβ3 integrin, wild type, on mouse lung endothelial cells (mouse) (O54890 26-787, chain 2 of 2, further chain): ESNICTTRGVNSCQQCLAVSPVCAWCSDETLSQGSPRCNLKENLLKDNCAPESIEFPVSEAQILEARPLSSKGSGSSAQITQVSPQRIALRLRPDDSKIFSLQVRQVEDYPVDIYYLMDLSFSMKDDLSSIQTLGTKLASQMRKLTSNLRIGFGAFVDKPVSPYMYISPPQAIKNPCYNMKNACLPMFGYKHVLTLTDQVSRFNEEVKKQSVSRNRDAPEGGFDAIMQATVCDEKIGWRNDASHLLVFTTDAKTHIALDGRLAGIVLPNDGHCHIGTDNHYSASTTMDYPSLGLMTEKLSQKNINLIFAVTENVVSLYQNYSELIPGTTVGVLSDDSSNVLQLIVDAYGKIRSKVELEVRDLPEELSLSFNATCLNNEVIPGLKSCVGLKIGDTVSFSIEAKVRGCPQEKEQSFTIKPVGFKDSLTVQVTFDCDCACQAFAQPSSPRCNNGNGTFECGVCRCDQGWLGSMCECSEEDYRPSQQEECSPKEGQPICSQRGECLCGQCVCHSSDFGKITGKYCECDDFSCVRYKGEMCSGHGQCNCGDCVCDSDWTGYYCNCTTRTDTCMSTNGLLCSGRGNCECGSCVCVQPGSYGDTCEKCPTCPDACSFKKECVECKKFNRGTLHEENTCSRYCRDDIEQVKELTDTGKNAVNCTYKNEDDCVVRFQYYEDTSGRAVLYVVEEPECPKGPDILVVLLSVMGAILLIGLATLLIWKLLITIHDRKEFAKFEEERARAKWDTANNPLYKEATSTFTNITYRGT
Chain of DiYF β3 integrin (αvβ3 with β3 Tyr747Phe and Tyr759Phe) on lung endothelial cells of knock-in mice (mouse) (P43406 31-1044, chain 1 of 2): as the sequence (P43406 31-1044, chain 1 of 2) above
Chain of DiYF β3 integrin (αvβ3 with β3 Tyr747Phe and Tyr759Phe) on lung endothelial cells of knock-in mice (mouse) (O54890 26-787 Y772F/Y784F, chain 2 of 2, further chain): as the sequence (O54890 26-787, chain 2 of 2, further chain) above, with Y747F, Y759F counted along it
Chain of VEGFR-2 of mouse lung endothelial cells (mouse) (P35918 20-1345): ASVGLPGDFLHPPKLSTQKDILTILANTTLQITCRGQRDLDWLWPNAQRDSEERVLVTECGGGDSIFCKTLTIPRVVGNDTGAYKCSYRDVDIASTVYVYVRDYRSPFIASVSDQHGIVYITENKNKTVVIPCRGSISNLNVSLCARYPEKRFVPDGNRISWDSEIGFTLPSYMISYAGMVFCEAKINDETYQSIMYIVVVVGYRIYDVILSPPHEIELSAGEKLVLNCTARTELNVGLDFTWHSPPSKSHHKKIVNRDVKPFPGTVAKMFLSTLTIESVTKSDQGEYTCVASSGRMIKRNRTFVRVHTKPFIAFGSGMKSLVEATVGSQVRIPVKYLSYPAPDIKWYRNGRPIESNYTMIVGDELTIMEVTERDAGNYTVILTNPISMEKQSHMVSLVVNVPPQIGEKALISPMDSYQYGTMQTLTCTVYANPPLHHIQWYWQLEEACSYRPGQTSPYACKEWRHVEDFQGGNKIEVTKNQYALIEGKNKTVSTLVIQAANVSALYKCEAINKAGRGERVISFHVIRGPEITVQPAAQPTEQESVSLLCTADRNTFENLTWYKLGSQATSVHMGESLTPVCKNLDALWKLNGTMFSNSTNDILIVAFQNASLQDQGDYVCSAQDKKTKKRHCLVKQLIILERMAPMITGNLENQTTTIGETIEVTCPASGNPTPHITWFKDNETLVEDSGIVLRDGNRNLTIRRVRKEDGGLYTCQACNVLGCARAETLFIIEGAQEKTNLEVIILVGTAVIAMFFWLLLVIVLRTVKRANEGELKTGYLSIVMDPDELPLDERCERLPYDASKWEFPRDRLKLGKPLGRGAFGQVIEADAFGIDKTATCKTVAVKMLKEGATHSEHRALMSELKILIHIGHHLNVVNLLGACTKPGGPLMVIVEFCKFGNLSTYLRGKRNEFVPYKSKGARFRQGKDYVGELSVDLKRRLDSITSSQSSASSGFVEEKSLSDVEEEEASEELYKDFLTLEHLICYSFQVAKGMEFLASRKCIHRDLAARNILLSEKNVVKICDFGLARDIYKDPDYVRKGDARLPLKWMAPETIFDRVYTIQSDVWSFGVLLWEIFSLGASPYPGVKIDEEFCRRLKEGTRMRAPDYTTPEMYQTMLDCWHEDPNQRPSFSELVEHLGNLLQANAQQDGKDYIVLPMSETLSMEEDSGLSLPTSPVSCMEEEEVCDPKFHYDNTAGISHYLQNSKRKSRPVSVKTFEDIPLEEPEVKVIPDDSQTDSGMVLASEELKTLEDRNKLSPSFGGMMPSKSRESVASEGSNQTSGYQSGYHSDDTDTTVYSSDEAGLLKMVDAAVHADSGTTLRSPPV

Substance: WOW-1 Fab
fold increase of binding on MnCl2 stimulation [1]: 14 fold
fold increase of binding on VEGF stimulation [1]: 3.5 fold
fold increase of WOW-1 density, prostate carcinoma against normal prostate tissue [2]: 2.7 fold
fold increase of binding on MnCl2 stimulation [3]: 30 fold
fold increase of binding on VEGF stimulation [3]: 9 fold
fold increase of binding on VEGF stimulation [4]: 6 fold
fold increase of binding on VEGF-A165 stimulation [5]: 6 fold
fold reduction of VEGF-triggered αvβ3 activation (WOW-1 binding) by dominant negative c-Src [6]: > 2 fold

VEGFR-2 phosphorylation in DiYF EC [7]: 2.5 fold
VEGFR-2 phosphorylation in WT EC [7]: 6 fold
Substance: VEGF-A165 (ligand)

fold increase of binding on MnCl2 stimulation [8]: > 40 fold
fold increase of binding on VEGF stimulation [8]: > 6 fold
fold increase of binding on MnCl2 stimulation [9]: 17 fold
fold increase of binding on VEGF stimulation [9]: 3 fold
Substance: FITC-labeled fibrinogen (ligand)

fold decrease in cell adhesion to vitronectin, DiYF EC against WT EC [10]: 2 fold
Substance: vitronectin (ligand)
